Results from US20120244166A1.

target: gp120 (HIV-1 strain YU2) (UniProt P35961); test: SPR

Substance	Kd
b12	38.1 nM

target: Du156.12; test: ELISA

Substance	EC50
5 (Heavy chain: P62K)	0.066 µg/mL
10 (Heavy chain: R53N)	0.063 µg/mL
9 (Heavy chain: K52N)	0.056 µg/mL
6 (Heavy chain: V73T)	0.097 µg/mL
8 (Heavy chain: I30T)	0.063 µg/mL
11 (Heavy chain: R61Q)	0.086 µg/mL
4 (Heavy chain: V57T)	0.164 µg/mL
1 (Heavy chain: T33Y)	0.048 µg/mL
3 (Heavy chain: A56G)	0.101 µg/mL
7 (Heavy chain: Y74S)	0.071 µg/mL
12 (Light chain: Y30S)	0.196 µg/mL
